Key:
[1] = target: T1, EV-D68 mature virion, strain US/MO/14-18947 (clade B) (enterovirus D68 strain US/MO/14-18947); assay: BLI
T1 chain 1: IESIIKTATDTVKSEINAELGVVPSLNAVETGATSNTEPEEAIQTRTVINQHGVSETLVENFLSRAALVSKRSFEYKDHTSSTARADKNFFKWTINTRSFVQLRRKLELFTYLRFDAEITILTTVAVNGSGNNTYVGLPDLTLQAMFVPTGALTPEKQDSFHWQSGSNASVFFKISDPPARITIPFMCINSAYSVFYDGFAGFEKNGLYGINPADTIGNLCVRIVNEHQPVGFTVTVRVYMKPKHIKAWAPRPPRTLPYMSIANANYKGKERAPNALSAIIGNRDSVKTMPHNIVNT
T1 chain 2: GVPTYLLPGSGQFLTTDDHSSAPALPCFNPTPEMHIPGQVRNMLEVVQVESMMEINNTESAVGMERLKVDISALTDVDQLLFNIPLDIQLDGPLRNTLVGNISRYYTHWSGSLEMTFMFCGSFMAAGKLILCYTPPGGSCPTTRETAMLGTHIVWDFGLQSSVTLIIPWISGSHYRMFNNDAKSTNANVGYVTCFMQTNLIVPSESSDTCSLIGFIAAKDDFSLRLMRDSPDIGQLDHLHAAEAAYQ
T1 chain 3: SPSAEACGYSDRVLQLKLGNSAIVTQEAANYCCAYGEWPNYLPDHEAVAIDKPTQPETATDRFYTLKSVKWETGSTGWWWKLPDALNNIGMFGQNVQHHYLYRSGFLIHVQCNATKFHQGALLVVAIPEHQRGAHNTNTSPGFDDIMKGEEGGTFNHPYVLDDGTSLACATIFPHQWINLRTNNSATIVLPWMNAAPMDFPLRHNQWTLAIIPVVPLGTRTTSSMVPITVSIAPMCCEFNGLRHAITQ
T1 chain 4: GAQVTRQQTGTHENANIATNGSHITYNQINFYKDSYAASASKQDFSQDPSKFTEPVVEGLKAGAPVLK

[2] = target: T1, EV-D68 mature virion, strain …; assay: BLI

B1: human-mouse chimeric MAb 2H12 (antibody, V domains shown)
VH: QVQLQQPGAELVMPGASVKMSCKASGYTFTDYWMHWVKQRPGQGLEWIGAIDTSDSYTTYNRKFKGKATLTVDESSSTAYMQLISLTSEDSAVYYCARGGGGNSPFAYWGQGTLVTVSA
VL: DIQMTQSPSSLSASLGERVSLTCRASQDIGSSLNWLQQEPDGTIKRLIYATSSLDSGVPKRFSGSRSGSDYSLTISSLESEDFVDYYCLQYASFPLTFGAGTKLELK
- Kd [1]: 2.9 nM
- koff [2]: 0.00055 s⁻¹

B2: human-mouse chimeric MAb 8F12 (antibody, V domains shown)
VH: QVQLQQPGTELVRPGASVKLSCKASGYSFTSYWMNWVKQRPGQGLEWIGMIHPSDSETRLNQRFKDKATLTVDKSSNTAYMQLSSPTSEDSAVYYCAREGYDYDGFAYWGQGTLVTVSA
VL: QIVLTQSPAAMSASPGEKVTMTCSASSSVIYMYWYQQKPGSSPRLLIYDTSNLASGVPVRFSGSGSGTSYSLTISRMEAEDAATYYCQQWSSFPYTFGGGTKLEIK
- koff [2]: 0.0044 s⁻¹

— paper PMC8131599 (2021)
